Measurements: paper PMC12681835

Legend:
Test in all cases: co-IP; HEK293 cells co-transfected with AnkB-220-HA (WT or mutant) and NrCAM plasmids in equimolar amounts; Brij98 lysate diluted in PBS, 0.1% TritonX-100; AnkB-HA precipitated with mouse anti-HA on Protein A/G magnetic beads overnight at 4 °C; blot for NrCAM, reprobed with anti-HA; NrCAM/AnkB ratio by densitometry
[1] = molecular target: AnkB-220-HA A373V (maternally inherited ASD missense mutation) (human)
[2] = molecular target: AnkB-220-HA H374A (human)
[3] = molecular target: AnkB-220-HA H374W (human)
[4] = molecular target: AnkB-220-HA R308E (human)
[5] = molecular target: AnkB-220-HA R297E (human)

fold increase of co-immunoprecipitation compared to WT AnkB [1]: 1.7 fold | percent decrease of co-immunoprecipitation compared to WT AnkB [2]: 80% | percent decrease of co-immunoprecipitation compared to WT AnkB [3]: 80% | percent decrease of co-immunoprecipitation compared to WT AnkB [4]: 90% | percent decrease of co-immunoprecipitation compared to WT AnkB [5]: 60%
Substance: Neuron-glial related L1-CAM (NrCAM), mouse, WT (natural protein)
